In US20140294765A1 (COMPUGEN, published 2014):

Tests used:
[1] = target: T1, mouse WT LSR protein expressed in stably transfected HEK293 or CHO-K1 cells (mouse, UniProt Q99KG5 36-594); experiment: flow cytometry on stably transfected CHO-K1 cells, 8C8 at 1, 2.5, 5 and 10 ug/ml, Geo Mean (FL1)
T1 construct: Made with a C-terminal Flag tag (pcDNA3.1); Lysate for the Western blot; also called WT-Mouse LSR-flag protein
T1 sequence: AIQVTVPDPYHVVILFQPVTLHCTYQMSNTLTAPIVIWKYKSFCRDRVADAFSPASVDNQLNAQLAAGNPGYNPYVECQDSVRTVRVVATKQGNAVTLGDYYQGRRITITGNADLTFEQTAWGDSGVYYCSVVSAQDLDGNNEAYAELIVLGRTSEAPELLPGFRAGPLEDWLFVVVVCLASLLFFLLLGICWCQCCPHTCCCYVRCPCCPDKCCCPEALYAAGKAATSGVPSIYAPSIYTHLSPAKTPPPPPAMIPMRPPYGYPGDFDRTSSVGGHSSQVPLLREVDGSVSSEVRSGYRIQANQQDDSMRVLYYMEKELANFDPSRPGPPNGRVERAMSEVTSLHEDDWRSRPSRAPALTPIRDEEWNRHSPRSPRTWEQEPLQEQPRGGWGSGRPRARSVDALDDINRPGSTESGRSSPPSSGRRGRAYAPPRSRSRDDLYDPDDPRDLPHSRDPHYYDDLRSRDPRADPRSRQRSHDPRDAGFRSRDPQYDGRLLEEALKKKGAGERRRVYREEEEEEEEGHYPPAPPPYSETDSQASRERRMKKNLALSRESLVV

[2] = target: T2, Peptide 2, amino acid residues 118-135 of SEQ ID NO:10 (human); experiment: ELISA, hybridoma culture supernatant
T2 construct: Immunisation peptide from the ECD of human LSR
T2 peptide: CQDSVRTVRVVATKQGNA
Protocol: FACS analysis was subsequently carried out with purified monoclonal Ab, 8C8, using a goat anti mouse-Alexa Fluor 488 (Invitrogen cat# A10667) as secondary Ab for detection.
Culture supernatants of the hybridoma clones were analyzed by ELISA.

binding result [1]: binds | binding result [2]: no binding
B1: 8C8, mouse IgG2a monoclonal antibody against human LSR (antibody, V domains shown)
VH: DVKLVESGGGLVKLGGSLKLSCAASGFTFSSYYMSWVRQTPEKRLELVAAINSNGGSTYYPDTVKGRFTISRDNAKNTLYLQMSSLKSEDTALYYCARHDYYGSSFAMDYWGQGTSVTVSS
VL: DIQMTQTTSSLSASLGDRVTISCRASQDISNYLNWYQQKPDGTVKLLIYYTSRLHSGVPSRFSGSGSGTDYSLTISNLEQEDIATYFCQQDSKHPWTFGGGTKLEIK
notes: also called 8C8 mAb; mAb 8C8
